Values quoted from earlier work, collected in paper PMC11820047.
Where two headings read alike, the source gives them in different places.

Columns and labels:
[1] = biological target: EGFR (Homo sapiens) (UniProt P00533)
[2] = biological target: EGFR (Homo sapiens) (UniProt P00533); remark: listed apart in the source

Substance: EGF (from UniProt P01133)
- Kd [1]: 2 nM

Substance: GE11
- Kd [2]: 22 nM
